Measurements as given in PMC6823436, “Phase separation of Polo-like kinase 4 by autoactivation and clustering drives centriole biogenesis” (Nature Communications, 2019).

Target: the molecule itself
Assay: SEC; Superdex 75 Increase 10/300 GL; 20 mM Tris-HCl pH 7.5, 500 mM NaCl, 5% glycerol, 0.5 mM TCEP; 0.5 mL/min; BSA run for comparison; dimeric state in solution

B1: CPB CP (581–808), cryptic polo-box of Plk4 with the CP mutations (domain or fragment, human, UniProt O00444 581-808, looked up)
chain: GYQNRTLRSITSPLVAHRLKPIRQKTKKAVVSILDSEEVCVELVKEYASQEYVKEVLQISSDGNTITIYYPNGGRGFPLADRPPSPTDNISRYSFDNLPEKYWRKYQYASRFVQLVREKEPKIEYFDRYAKCILMENSPGADFEVWFYDGVKIHKTEDFIQVIEKTGKSYTLKSESEVNSLKEEIKMYMDHANEGHRICLALESIISEEERKTRSAPFFPIIIGRKPG
notes: PDB 6N46 is the His6-tagged form of the same limits; PDB 4N9J is the wild-type apo-CPB; also called CBP CP; source: E. coli Rosetta, purified (HisTrap, SEC, TEV cleavage, HisTrap and MBPTrap, SEC)
- binding result: binds
